Read-outs that look alike come from different tables or passages of the source.
Experiments:
[1] = molecular target: MBL associated serine protease 2 (MASP2) (human) (UniProt O00187); test: cell-based or functional assay
[2] = molecular target: MBL associated serine protease 2 (MASP2) (human) (UniProt O00187); test: cell-based or functional assay; remark: listed apart in the source

Chain of MBL associated serine protease 2 (MASP2) (human) (O00187 16-686 limits assumed): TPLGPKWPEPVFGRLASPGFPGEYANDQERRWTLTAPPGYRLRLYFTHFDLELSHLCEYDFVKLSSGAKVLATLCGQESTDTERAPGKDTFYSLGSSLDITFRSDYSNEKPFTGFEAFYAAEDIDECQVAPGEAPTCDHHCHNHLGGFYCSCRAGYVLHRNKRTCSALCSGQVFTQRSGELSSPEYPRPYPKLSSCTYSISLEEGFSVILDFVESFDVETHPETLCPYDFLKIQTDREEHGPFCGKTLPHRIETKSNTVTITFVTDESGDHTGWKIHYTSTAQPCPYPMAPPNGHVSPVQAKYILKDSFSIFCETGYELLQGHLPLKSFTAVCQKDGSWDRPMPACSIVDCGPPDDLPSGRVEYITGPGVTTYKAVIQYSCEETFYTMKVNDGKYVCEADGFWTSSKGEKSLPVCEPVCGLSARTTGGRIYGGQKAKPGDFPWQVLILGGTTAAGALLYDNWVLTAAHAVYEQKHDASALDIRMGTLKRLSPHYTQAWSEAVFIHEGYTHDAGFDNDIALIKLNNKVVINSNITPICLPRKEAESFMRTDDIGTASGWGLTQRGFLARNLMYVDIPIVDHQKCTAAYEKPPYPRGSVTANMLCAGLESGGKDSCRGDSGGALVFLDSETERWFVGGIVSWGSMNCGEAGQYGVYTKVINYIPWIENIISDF
Chain of affinity purified MBL-MASP complex (P11226 21-248, one chain of several): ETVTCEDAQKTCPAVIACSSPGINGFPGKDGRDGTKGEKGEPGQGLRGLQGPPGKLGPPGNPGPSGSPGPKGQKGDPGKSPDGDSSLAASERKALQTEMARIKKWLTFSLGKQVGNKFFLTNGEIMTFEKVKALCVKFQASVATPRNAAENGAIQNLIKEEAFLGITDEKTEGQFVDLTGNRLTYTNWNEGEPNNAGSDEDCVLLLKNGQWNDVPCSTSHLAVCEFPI

C4 deposition at MBL 0.471 ug/mL [1]: 0.054 U/ul | C4 deposition at MBL 1.065 ug/mL [1]: 0.057 U/ul | C4 deposition at MBL 2.237 ug/mL [1]: 0.104 U/ul | C4 deposition at MBL 2.802 ug/mL [1]: 0.114 U/ul | C4 deposition at MBL 4.011 ug/mL [1]: 0.138 U/ul | C4 deposition at MBL 4.681 ug/mL [1]: 0.171 U/ul | C4 deposition at MBL 5.382 ug/mL [1]: 0.159 U/ul | C4 deposition at MBL 6.814 ug/mL [1]: 0.19 U/ul | C4 deposition at MBL 7.967 ug/mL [1]: 0.203 U/ul | C4 deposition at MBL 10.998 ug/mL [1]: 0.22 U/ul | C4 deposition at MBL 40 ug/mL [1]: 0.292 U/ul | C4 deposition at MBL 50 ug/mL [1]: 0.308 U/ul | C4 deposition at MBL 0.624 ug/mL [2]: 0.05 U/ul | C4 deposition at MBL 1.032 ug/mL [2]: 0.068 U/ul | C4 deposition at MBL 2.081 ug/mL [2]: 0.103 U/ul | C4 deposition at MBL 3.3 ug/mL [2]: 0.197 U/ul | C4 deposition at MBL 4.08 ug/mL [2]: 0.138 U/ul | C4 deposition at MBL 4.42 ug/mL [2]: 0.168 U/ul | C4 deposition at MBL 5.95 ug/mL [2]: 0.172 U/ul | C4 deposition at MBL 6.94 ug/mL [2]: 0.197 U/ul | C4 deposition at MBL 11.41 ug/mL [2]: 0.204 U/ul | C4 deposition at MBL 15 ug/mL [2]: 0.246 U/ul | C4 deposition at MBL 25 µg/mL (previous assay, same batch) [2]: 0.27 U/µl | C4 deposition at MBL 40 ug/mL [2]: 0.321 U/ul | C4 deposition at MBL 50 ug/mL [2]: 0.289 U/ul
Substance: affinity purified MBL-MASP complex (from UniProt P11226 21-248)
